{"source": "patent US20180222961A1", "about": "(IMMATICS BIOTECHNOLOGIES, published 2018)", "binders": {"B1": {"name": "RLFTSPIMTK (peptide)", "peptide": "RLFTSPIMTK"}, "B2": {"name": "RVFTSSIKTK (peptide)", "peptide": "RVFTSSIKTK"}, "B3": {"name": "SVLTSSLVK (peptide)", "peptide": "SVLTSSLVK"}, "B4": {"name": "VLADSVTTK (peptide)", "peptide": "VLADSVTTK"}, "B5": {"name": "RLFSWLVNR (peptide)", "peptide": "RLFSWLVNR"}, "B6": {"name": "AAFVPLLLK (peptide)", "peptide": "AAFVPLLLK"}, "B7": {"name": "RLQEWKALK (peptide)", "peptide": "RLQEWKALK"}, "B8": {"name": "KTFTIKRFLAK (peptide)", "peptide": "KTFTIKRFLAK"}, "B9": {"name": "SAAPPSYFR (peptide)", "peptide": "SAAPPSYFR"}, "B10": {"name": "RTEEVLLTFK (peptide)", "peptide": "RTEEVLLTFK"}, "B11": {"name": "VTADHSHVF (peptide)", "peptide": "VTADHSHVF"}, "B12": {"name": "GTYAHTVNR (peptide)", "peptide": "GTYAHTVNR"}, "B13": {"name": "GAYAHTVNR (peptide)", "peptide": "GAYAHTVNR"}, "B14": {"name": "KTLELRVAY (peptide)", "peptide": "KTLELRVAY"}, "B15": {"name": "GTNTVILEY (peptide)", "peptide": "GTNTVILEY"}, "B16": {"name": "HTFGLFYQR (peptide)", "peptide": "HTFGLFYQR"}, "B17": {"name": "RSRLNPLVQR (peptide)", "peptide": "RSRLNPLVQR"}, "B18": {"name": "SSSSATISK (peptide)", "peptide": "SSSSATISK"}, "B19": {"name": "AIKVIPTVFK (peptide)", "peptide": "AIKVIPTVFK"}, "B20": {"name": "QIHDHVNPK (peptide)", "peptide": "QIHDHVNPK"}, "B21": {"name": "ISYSGQFLVK (peptide)", "peptide": "ISYSGQFLVK"}, "B22": {"name": "VTDLISPRK (peptide)", "peptide": "VTDLISPRK"}, "B23": {"name": "RLKGDAWVYK (peptide)", "peptide": "RLKGDAWVYK"}, "B24": {"name": "AVFNPRFYRTY (peptide)", "peptide": "AVFNPRFYRTY"}, "B25": {"name": "LPWDTSTTLF (peptide)", "peptide": "LPWDTSTTLF"}, "B26": {"name": "MPLTTGSQGM (peptide)", "peptide": "MPLTTGSQGM"}, "B27": {"name": "MPNSAIPFSM (peptide)", "peptide": "MPNSAIPFSM"}, "B28": {"name": "MPSLSEAMTSF (peptide)", "peptide": "MPSLSEAMTSF"}, "B29": {"name": "NPSSTTTEF (peptide)", "peptide": "NPSSTTTEF"}, "B30": {"name": "NVLTSTPAF (peptide)", "peptide": "NVLTSTPAF"}, "B31": {"name": "SPAETSTNM (peptide)", "peptide": "SPAETSTNM"}, "B32": {"name": "SPAMTTPSL (peptide)", "peptide": "SPAMTTPSL"}, "B33": {"name": "SPLVTSHIM (peptide)", "peptide": "SPLVTSHIM"}, "B34": {"name": "SPNEFYFTV (peptide)", "peptide": "SPNEFYFTV"}, "B35": {"name": "SPSPVPTTL (peptide)", "peptide": "SPSPVPTTL"}, "B36": {"name": "SPSTIKLTM (peptide)", "peptide": "SPSTIKLTM"}, "B37": {"name": "SPSVSSNTY (peptide)", "peptide": "SPSVSSNTY"}, "B38": {"name": "SPTHVTQSL (peptide)", "peptide": "SPTHVTQSL"}, "B39": {"name": "SPVPVTSLF (peptide)", "peptide": "SPVPVTSLF"}, "B40": {"name": "TAKTPDATF (peptide)", "peptide": "TAKTPDATF"}, "B41": {"name": "TPLATTQRF (peptide)", "peptide": "TPLATTQRF"}, "B42": {"name": "TPLATTQRFTY (peptide)", "peptide": "TPLATTQRFTY"}, "B43": {"name": "TPSVVTEGF (peptide)", "peptide": "TPSVVTEGF"}, "B44": {"name": "VPTPVFPTM (peptide)", "peptide": "VPTPVFPTM"}, "B45": {"name": "PGGTRQSL (peptide)", "peptide": "PGGTRQSL"}, "B46": {"name": "LYVDGFTHW (peptide)", "peptide": "LYVDGFTHW"}, "B47": {"name": "IPRNPPPTLL (peptide)", "peptide": "IPRNPPPTLL"}, "B48": {"name": "RPRALRDLRIL (peptide)", "peptide": "RPRALRDLRIL"}, "B49": {"name": "NPIGDTGVKF (peptide)", "peptide": "NPIGDTGVKF"}, "B50": {"name": "AAASPLLLL (peptide)", "peptide": "AAASPLLLL"}, "B51": {"name": "RPRSPAGQVA (peptide)", "peptide": "RPRSPAGQVA"}, "B52": {"name": "RPRSPAGQVAAA (peptide)", "peptide": "RPRSPAGQVAAA"}, "B53": {"name": "RPRSPAGQVAA (peptide)", "peptide": "RPRSPAGQVAA"}, "B54": {"name": "GPFPLVYVL (peptide)", "peptide": "GPFPLVYVL"}, "B55": {"name": "IPTYGRTF (peptide)", "peptide": "IPTYGRTF"}, "B56": {"name": "LPEQTPLAF (peptide)", "peptide": "LPEQTPLAF"}, "B57": {"name": "SPMHDRWTF (peptide)", "peptide": "SPMHDRWTF"}, "B58": {"name": "TPTKETVSL (peptide)", "peptide": "TPTKETVSL"}, "B59": {"name": "YPGLRGSPM (peptide)", "peptide": "YPGLRGSPM"}, "B60": {"name": "SPALHIGSV (peptide)", "peptide": "SPALHIGSV"}, "B61": {"name": "FPFNPLDF (peptide)", "peptide": "FPFNPLDF"}, "B62": {"name": "APLKLSRTPA (peptide)", "peptide": "APLKLSRTPA"}, "B63": {"name": "SPAPLKLSRTPA (peptide)", "peptide": "SPAPLKLSRTPA"}, "B64": {"name": "SPGAQRTFFQL (peptide)", "peptide": "SPGAQRTFFQL"}, "B65": {"name": "NPDLRRNVL (peptide)", "peptide": "NPDLRRNVL"}, "B66": {"name": "APSTPRITTF (peptide)", "peptide": "APSTPRITTF"}, "B67": {"name": "KPIESTLVA (peptide)", "peptide": "KPIESTLVA"}}}
{"molecular_target": "T1, HLA-A*03:01 (human)", "T1 construct": "also called peptide-receptive MHC molecules", "assay": "UV-exchange b2m ELISA; exchange-yield grade", "source_text": "(§1) Candidate peptides for T cell based therapies according to the present invention were further tested for their MHC binding capacity (affinity). The individual peptide-MHC complexes were produced by UV-ligand exchange, where a UV-sensitive peptide is cleaved upon UV-irradiation, and exchanged with the peptide of interest as analyzed. Only peptide candidates that can effectively bind and stabilize the peptide-receptive MHC molecules prevent dissociation of the MHC complexes. To determine the yield of the exchange reaction, an ELISA was performed based on the detection of the light chain (β2m) of stabilized MHC complexes. The assay was performed as generally described in Rodenko et al. (Rodenko et al., 2006).\n(§2) 96 well MAXISorp plates (NUNC) were coated over night with 2 ug/ml streptavidin in PBS at room temperature, washed 4× and blocked for 1 h at 37° C. in 2% BSA containing blocking buffer. Refolded HLA-A*02:01/MLA-001 monomers served as standards, covering the range of 15-500 ng/ml. Peptide-MHC monomers of the UV-exchange reaction were diluted 100-fold in blocking buffer. Samples were incubated for 1 h at 37° C., washed four times, incubated with 2 ug/ml HRP conjugated anti-β2m for 1 h at 37° C., washed again and detected with TMB solution that is stopped with […]. Absorption was measured at 450 nm. Candidate peptides that show a high exchange yield (preferably higher than 50%, most preferred higher than 75%) are generally preferred for a generation and production of antibodies or fragments thereof, and/or T cell receptors or fragments thereof, as they show sufficient avidity to the MHC molecules and prevent dissociation of the MHC complexes.", "units": {"peptide exchange yield": "%"}}
{"binder": "B1", "peptide exchange yield": "50 to 75"}
{"binder": "B2", "peptide exchange yield": "20 to 50"}
{"binder": "B3", "peptide exchange yield": "20 to 50"}
{"binder": "B4", "peptide exchange yield": "20 to 50"}
{"binder": "B5", "peptide exchange yield": "50 to 75"}
{"binder": "B6", "peptide exchange yield": "20 to 50"}
{"binder": "B7", "peptide exchange yield": "50 to 75"}
{"binder": "B8", "peptide exchange yield": "20 to 50"}
{"binder": "B9", "peptide exchange yield": "20 to 50"}
{"binder": "B10", "peptide exchange yield": "20 to 50"}
{"binder": "B11", "peptide exchange yield": "10 to 20"}
{"binder": "B12", "peptide exchange yield": "50 to 75"}
{"binder": "B13", "peptide exchange yield": "50 to 75"}
{"binder": "B14", "peptide exchange yield": "20 to 50"}
{"binder": "B15", "peptide exchange yield": "50 to 75"}
{"binder": "B16", "peptide exchange yield": "20 to 50"}
{"binder": "B17", "peptide exchange yield": "20 to 50"}
{"binder": "B18", "peptide exchange yield": "20 to 50"}
{"binder": "B19", "peptide exchange yield": "20 to 50"}
{"binder": "B20", "peptide exchange yield": "20 to 50"}
{"binder": "B21", "peptide exchange yield": "50 to 75"}
{"binder": "B22", "peptide exchange yield": "20 to 50"}
{"binder": "B23", "peptide exchange yield": "50 to 75"}
{"binder": "B24", "peptide exchange yield": "20 to 50"}
{"molecular_target": "T2, HLA-B*07:02 (human)", "T2 construct": "also called peptide-receptive MHC molecules", "assay": "UV-exchange b2m ELISA; exchange-yield grade", "source_text": "as §1, §2", "units": {"peptide exchange yield": "%"}}
{"binder": "B25", "peptide exchange yield": "50 to 75"}
{"binder": "B26", "peptide exchange yield": "20 to 50"}
{"binder": "B27", "peptide exchange yield": "50 to 75"}
{"binder": "B28", "peptide exchange yield": "50 to 75"}
{"binder": "B29", "peptide exchange yield": "50 to 75"}
{"binder": "B30", "peptide exchange yield": "20 to 50"}
{"binder": "B31", "peptide exchange yield": "50 to 75"}
{"binder": "B32", "peptide exchange yield": "50 to 75"}
{"binder": "B33", "peptide exchange yield": "50 to 75"}
{"binder": "B34", "peptide exchange yield": "50 to 75"}
{"binder": "B35", "peptide exchange yield": "50 to 75"}
{"binder": "B36", "peptide exchange yield": "50 to 75"}
{"binder": "B37", "peptide exchange yield": "20 to 50"}
{"binder": "B38", "peptide exchange yield": "50 to 75"}
{"binder": "B39", "peptide exchange yield": "50 to 75"}
{"binder": "B40", "peptide exchange yield": "20 to 50"}
{"binder": "B41", "peptide exchange yield": "20 to 50"}
{"binder": "B42", "peptide exchange yield": "20 to 50"}
{"binder": "B43", "peptide exchange yield": "20 to 50"}
{"binder": "B44", "peptide exchange yield": "20 to 50"}
{"binder": "B45", "peptide exchange yield": "10 to 20"}
{"binder": "B46", "peptide exchange yield": "20 to 50"}
{"binder": "B47", "peptide exchange yield": "50 to 75"}
{"binder": "B48", "peptide exchange yield": "50 to 75"}
{"binder": "B49", "peptide exchange yield": "50 to 75"}
{"binder": "B50", "peptide exchange yield": "20 to 50"}
{"binder": "B51", "peptide exchange yield": "50 to 75"}
{"binder": "B52", "peptide exchange yield": "50 to 75"}
{"binder": "B53", "peptide exchange yield": "50 to 75"}
{"binder": "B54", "peptide exchange yield": "50 to 75"}
{"binder": "B55", "peptide exchange yield": "50 to 75"}
{"binder": "B56", "peptide exchange yield": "20 to 50"}
{"binder": "B57", "peptide exchange yield": "50 to 75"}
{"binder": "B58", "peptide exchange yield": "50 to 75"}
{"binder": "B59", "peptide exchange yield": "50 to 75"}
{"binder": "B60", "peptide exchange yield": "50 to 75"}
{"binder": "B61", "peptide exchange yield": "20 to 50"}
{"binder": "B62", "peptide exchange yield": "50 to 75"}
{"binder": "B63", "peptide exchange yield": "20 to 50"}
{"binder": "B64", "peptide exchange yield": "50 to 75"}
{"binder": "B65", "peptide exchange yield": "50 to 75"}
{"binder": "B66", "peptide exchange yield": "50 to 75"}
{"binder": "B67", "peptide exchange yield": "50 to 75"}
